The values that follow come from patent publication US20240141072A1 (published 2024).

Assay [1] deals with T1, DLL3 targeting trispecific protein containing 52D04, anti-DLL3:anti-ALB:anti-CD3 (TAC) configuration.
T1 construct: also called DLL3-targeting TriTAC
Description: flow cytometry on NCI-H82, SHP77, DMS53, NCI-H2171 cells.

The target of assay [2] is T2, DLL3 targeting trispecific protein containing 52D04, anti-CD3:anti-ALB:anti-DLL3 (CAT) configuration.
T2 construct: also called DLL3-targeting TriTAC
T2 sequence (chain, as listed by the source): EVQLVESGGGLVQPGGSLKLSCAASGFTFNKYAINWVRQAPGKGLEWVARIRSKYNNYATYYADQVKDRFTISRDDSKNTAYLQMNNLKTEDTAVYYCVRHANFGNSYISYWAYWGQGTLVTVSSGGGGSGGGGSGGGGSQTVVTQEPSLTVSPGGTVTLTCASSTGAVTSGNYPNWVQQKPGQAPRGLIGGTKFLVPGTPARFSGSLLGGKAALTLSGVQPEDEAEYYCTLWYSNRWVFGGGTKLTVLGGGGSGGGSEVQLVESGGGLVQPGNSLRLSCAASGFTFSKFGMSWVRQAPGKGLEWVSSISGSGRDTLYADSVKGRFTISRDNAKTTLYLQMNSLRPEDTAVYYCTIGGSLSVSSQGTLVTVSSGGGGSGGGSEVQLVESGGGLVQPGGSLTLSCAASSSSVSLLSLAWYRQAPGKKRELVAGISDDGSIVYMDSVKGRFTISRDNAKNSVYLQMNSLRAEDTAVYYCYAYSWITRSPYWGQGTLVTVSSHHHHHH
Described as above.

T1 sequence (chain, as listed by the source): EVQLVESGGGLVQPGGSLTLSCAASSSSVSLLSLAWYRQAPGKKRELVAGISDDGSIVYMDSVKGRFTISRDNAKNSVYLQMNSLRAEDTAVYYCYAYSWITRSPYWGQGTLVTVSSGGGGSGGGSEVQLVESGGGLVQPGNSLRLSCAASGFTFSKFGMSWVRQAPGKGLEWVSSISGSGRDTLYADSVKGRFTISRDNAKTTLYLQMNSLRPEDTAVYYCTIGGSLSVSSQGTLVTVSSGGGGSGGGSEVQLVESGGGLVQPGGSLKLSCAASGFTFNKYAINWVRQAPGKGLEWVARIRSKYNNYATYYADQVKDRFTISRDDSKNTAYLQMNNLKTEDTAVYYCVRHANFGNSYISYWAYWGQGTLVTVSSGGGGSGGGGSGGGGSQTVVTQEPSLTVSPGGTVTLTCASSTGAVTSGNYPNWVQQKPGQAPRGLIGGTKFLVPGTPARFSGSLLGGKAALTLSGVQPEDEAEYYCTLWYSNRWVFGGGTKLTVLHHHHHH

B1: human DLL3 on DLL3-expressing tumor cell lines (ligand)
chain: AGVFELQIHSFGPGPGPGAPRSPCSARLPCRLFFRVCLKPGLSEEAAESPCALGAALSARGPVYTEQPGAPAPDLPLPDGLLQVPFRDAWPGTFSFIIETWREELGDQIGGPAWSLLARVAGRRRLAAGGPWARDIQRAGAWELRFSYRARCEPPAVGTACTRLCRPRSAPSRCGPGLRPCAPLEDECEAPLVCRAGCSPEHGFCEQPGECRCLEGWTGPLCTVPVSTSSCLSPRGPSSATTGCLVPGPGPCDGNPCANGGSCSETPRSFECTCPRGFYGLRCEVSGVTCADGPCFNGGLCVGGADPDSAYICHCPPGFQGSNCEKRVDRCSLQPCRNGGLCLDLGHALRCRCRAGFAGPRCEHDLDDCAGRACANGGTCVEGGGAHRCSCALGFGGRDCRERADPCAARPCAHGGRCYAHFSGLVCACAPGYMGARCEFPVHPDGASALPAAPPGLRPGDPQRYLLPPALGLLVAAGVAGAALLLVHVRRRGHSQDAGSRLLAGTPEPSVHALPDALNNLRTQEGSGDGPSSSVDWNRPEDVDPQGIYVISAPSIYAREVATPLFPPLHTGRAGQRQHLLFPYPSSILSVK
notes: endogenous DLL3 of human cancer cell lines
For B1, the binding result in assay [1] and in assay [2] was “binds” throughout.
